Source: PMC7055391

Target: Cqm1 receptor protein (functional form; residues 23–560) (Culex quinquefasciatus)
Assay: small-angle neutron scattering (SANS); single proteins in 100% D2O buffer C (25 mM HEPES pH 7.5, 25 mM NaCl), 25°C; Cqm1 3.3 mg/ml, hBinB 3.3 mg/ml; ab initio IFT modelling and fits against crystal structures

stoichiometry N: 2
Substance: Cqm1 receptor protein (functional form; residues 23–560)
